{"source": "patent US20260274985A1", "about": "(MYTHIC THERAPEUTICS, published 2026)", "binders": {"B1": {"name": "MYT12295 (antibody, V domains shown)", "VH": "QVQLQQSGSELKKPGASVKVSCKASGYTFTNHGMNWVKQAPGQGLKWMGWINTYTGEPTHTDDFKGRFAFSLDTSVSTAYLQISSLKADDTAVYFCARGGFGSSYWYFDVWGQGSLVTVSS", "VL": "DIQLTQSPSSLSASVGDRVSITCKASQDVSIAVAWYQQKPGKAPKLLIYSASYRYTGVPDRFSGSGSGTDFTLTISSLQPEDFAVYYCQQHYITPLTFGAGTKVEIK", "notes": "sacituzumab VH 32, 60 -> H"}, "B2": {"name": "MYT12297 (antibody, V domains shown)", "VH": "B1 VH with H60Y, D63H", "VL": "B1 VL", "notes": "sacituzumab VH 32, 63 -> H"}, "B3": {"name": "MYT12298 (antibody, V domains shown)", "VH": "B1 VH with H60Y, F64H", "VL": "B1 VL", "notes": "sacituzumab VH 32, 64 -> H"}, "B4": {"name": "MYT12302 (antibody, V domains shown)", "VH": "B1 VH with H32Y, G33H, H60Y, D62H", "VL": "B1 VL", "notes": "sacituzumab VH 33, 62 -> H"}, "B5": {"name": "MYT12306 (antibody, V domains shown)", "VH": "B1 VH with H32Y, G33H, H60Y, G66H", "VL": "B1 VL", "notes": "sacituzumab VH 33, 66 -> H"}, "B6": {"name": "MYT12310 (antibody, V domains shown)", "VH": "B1 VH with H32Y, K65H", "VL": "B1 VL", "notes": "sacituzumab VH 60, 65 -> H"}, "B7": {"name": "MYT12318 (antibody, V domains shown)", "VH": "B1 VH with H32Y, H60Y, D63H, G66H", "VL": "B1 VL", "notes": "sacituzumab VH 63, 66 -> H"}, "B8": {"name": "MYT12319 (antibody, V domains shown)", "VH": "B1 VH with H32Y, H60Y, F64H, K65H", "VL": "B1 VL", "notes": "sacituzumab VH 64, 65 -> H"}, "B9": {"name": "MYT12320 (antibody, V domains shown)", "VH": "B1 VH with H32Y, H60Y, F64H, G66H", "VL": "B1 VL", "notes": "sacituzumab VH 64, 66 -> H"}, "B10": {"name": "MYT12342 (antibody, V domains shown)", "VH": "B1 VH with H32Y, H60Y", "VL": "B1 VL with V33H, Y53H", "notes": "sacituzumab VL 33, 53 -> H"}, "B11": {"name": "MYT12343 (antibody, V domains shown)", "VH": "B1 VH with H32Y, H60Y", "VL": "B1 VL with V33H, Q89H", "notes": "sacituzumab VL 33, 89 -> H"}, "B12": {"name": "MYT12346 (antibody, V domains shown)", "VH": "B1 VH with H32Y, H60Y", "VL": "B1 VL with V33H, I93H", "notes": "sacituzumab VL 33, 93 -> H"}, "B13": {"name": "MYT12347 (antibody, V domains shown)", "VH": "B1 VH with H32Y, H60Y", "VL": "B1 VL with A51H, S52H", "notes": "sacituzumab VL 51, 52 -> H"}, "B14": {"name": "MYT12348 (antibody, V domains shown)", "VH": "B1 VH with H32Y, H60Y", "VL": "B1 VL with A51H, Y53H", "notes": "sacituzumab VL 51, 53 -> H"}, "B15": {"name": "MYT12349 (antibody, V domains shown)", "VH": "B1 VH with H32Y, H60Y", "VL": "B1 VL with A51H, Q89H", "notes": "sacituzumab VL 51, 89 -> H"}, "B16": {"name": "MYT12354 (antibody, V domains shown)", "VH": "B1 VH with H32Y, H60Y", "VL": "B1 VL with S52H, Q89H", "notes": "sacituzumab VL 52, 89 -> H"}, "B17": {"name": "MYT12358 (antibody, V domains shown)", "VH": "B1 VH with H32Y, H60Y", "VL": "B1 VL with Y53H, Q89H", "notes": "sacituzumab VL 53, 89 -> H"}, "B18": {"name": "MYT13205 (antibody, V domains shown)", "VH": "B1 VH with H32Y, H60Y, F64H", "VL": "B1 VL with Q89H", "notes": "Sacituzumab HC-LC pairing variant; IgG"}, "B19": {"name": "MYT13206 (antibody, V domains shown)", "VH": "B1 VH with H32Y, H60Y, K65H", "VL": "B1 VL with Q89H", "notes": "as for B18"}, "B20": {"name": "MYT13207 (antibody, V domains shown)", "VH": "B1 VH with H32Y, H60Y, G66H", "VL": "B1 VL with Q89H", "notes": "as for B18"}, "B21": {"name": "MYT13211 (antibody, V domains shown)", "VH": "B1 VH with H32Y, H60Y, D62H", "VL": "B1 VL with H91A", "notes": "as for B18"}, "B22": {"name": "MYT13212 (antibody, V domains shown)", "VH": "B1 VH with H32Y, H60Y, D63H", "VL": "B1 VL with H91A", "notes": "as for B18"}, "B23": {"name": "MYT13213 (antibody, V domains shown)", "VH": "B1 VH with H32Y, H60Y, F64H", "VL": "B1 VL with H91A", "notes": "as for B18"}, "B24": {"name": "MYT13214 (antibody, V domains shown)", "VH": "B1 VH with H32Y, H60Y, K65H", "VL": "B1 VL with H91A", "notes": "as for B18"}, "B25": {"name": "MYT13215 (antibody, V domains shown)", "VH": "B1 VH with H32Y, H60Y, G66H", "VL": "B1 VL with H91A", "notes": "as for B18"}, "B26": {"name": "MYT13224 (antibody, V domains shown)", "VH": "B1 VH with H60Y", "VL": "B1 VL with I93H", "notes": "as for B18"}, "B27": {"name": "MYT13225 (antibody, V domains shown)", "VH": "B1 VH with H32Y, G33H, H60Y", "VL": "B1 VL with I93H", "notes": "as for B18"}, "B28": {"name": "MYT13226 (antibody, V domains shown)", "VH": "B1 VH with H32Y", "VL": "B1 VL with I93H", "notes": "as for B18"}, "B29": {"name": "MYT13227 (antibody, V domains shown)", "VH": "B1 VH with H32Y, H60Y, D62H", "VL": "B1 VL with I93H", "notes": "as for B18"}, "B30": {"name": "MYT13228 (antibody, V domains shown)", "VH": "B1 VH with H32Y, H60Y, D63H", "VL": "B1 VL with I93H", "notes": "as for B18"}, "B31": {"name": "MYT13229 (antibody, V domains shown)", "VH": "B1 VH with H32Y, H60Y, F64H", "VL": "B1 VL with I93H", "notes": "as for B18"}, "B32": {"name": "MYT13230 (antibody, V domains shown)", "VH": "B1 VH with H32Y, H60Y, K65H", "VL": "B1 VL with I93H", "notes": "as for B18"}, "B33": {"name": "MYT13231 (antibody, V domains shown)", "VH": "B1 VH with H32Y, H60Y, G66H", "VL": "B1 VL with I93H", "notes": "as for B18"}, "B34": {"name": "MYT13234 (antibody, V domains shown)", "VH": "B1 VH with H32Y", "VL": "B1 VL with A51H, S52H", "notes": "as for B18"}, "B35": {"name": "MYT13235 (antibody, V domains shown)", "VH": "B1 VH with H32Y, H60Y, D62H", "VL": "B1 VL with A51H, S52H", "notes": "as for B18"}, "B36": {"name": "MYT13236 (antibody, V domains shown)", "VH": "B1 VH with H32Y, H60Y, D63H", "VL": "B1 VL with A51H, S52H", "notes": "as for B18"}, "B37": {"name": "MYT13240 (antibody, V domains shown)", "VH": "B1 VH with H60Y", "VL": "B1 VL with A51H, Q89H", "notes": "as for B18"}, "B38": {"name": "MYT13242 (antibody, V domains shown)", "VH": "B1 VH with H32Y", "VL": "B1 VL with A51H, Q89H", "notes": "as for B18"}, "B39": {"name": "MYT13243 (antibody, V domains shown)", "VH": "B1 VH with H32Y, H60Y, D62H", "VL": "B1 VL with A51H, Q89H", "notes": "as for B18"}, "B40": {"name": "MYT13244 (antibody, V domains shown)", "VH": "B1 VH with H32Y, H60Y, D63H", "VL": "B1 VL with A51H, Q89H", "notes": "as for B18"}, "B41": {"name": "MYT13245 (antibody, V domains shown)", "VH": "B1 VH with H32Y, H60Y, F64H", "VL": "B1 VL with A51H, Q89H", "notes": "as for B18"}, "B42": {"name": "MYT13246 (antibody, V domains shown)", "VH": "B1 VH with H32Y, H60Y, K65H", "VL": "B1 VL with A51H, Q89H", "notes": "as for B18"}, "B43": {"name": "MYT13247 (antibody, V domains shown)", "VH": "B1 VH with H32Y, H60Y, G66H", "VL": "B1 VL with A51H, Q89H", "notes": "as for B18"}, "B44": {"name": "MYT13248 (antibody, V domains shown)", "VH": "B1 VH with H60Y", "VL": "B1 VL with S52H, I93H", "notes": "as for B18"}}, "note": "Residue numbers refer to the chain shown, from its start.", "data": [{"biological_target": "T1, Human TROP2 Protein, His Tag (Acro Biosystems) (human, UniProt P09758 27-274)", "T1 construct": "not shown: His tag", "T1 sequence (looked up)": "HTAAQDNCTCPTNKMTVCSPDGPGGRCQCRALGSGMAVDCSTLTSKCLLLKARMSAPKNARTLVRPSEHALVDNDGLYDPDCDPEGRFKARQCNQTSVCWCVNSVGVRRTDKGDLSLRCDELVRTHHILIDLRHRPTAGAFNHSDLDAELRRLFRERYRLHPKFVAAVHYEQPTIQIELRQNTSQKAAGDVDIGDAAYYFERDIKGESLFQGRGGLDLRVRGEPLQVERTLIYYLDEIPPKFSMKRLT", "test": "BLI (Octet)", "values": [{"binder": "B1", "binding result": "binds"}, {"binder": "B2", "binding result": "binds"}, {"binder": "B3", "binding result": "binds"}, {"binder": "B4", "binding result": "binds"}, {"binder": "B5", "binding result": "binds"}, {"binder": "B6", "binding result": "binds"}, {"binder": "B7", "binding result": "binds"}, {"binder": "B8", "binding result": "binds"}, {"binder": "B9", "binding result": "binds"}, {"binder": "B10", "binding result": "binds"}, {"binder": "B11", "binding result": "binds"}, {"binder": "B12", "binding result": "binds"}, {"binder": "B13", "binding result": "binds"}, {"binder": "B14", "binding result": "binds"}, {"binder": "B15", "binding result": "binds"}, {"binder": "B16", "binding result": "binds"}, {"binder": "B17", "binding result": "binds"}]}, {"biological_target": "T2, Human TROP2 Protein, His Tag (Acro Biosystems) (human, UniProt P09758 27-274)", "T2 construct": "Soluble analyte of the Octet assay; also called TACSTD2; not shown: His tag", "T2 sequence (looked up)": "T1 sequence (looked up)", "test": "BLI (Octet) [1/2]", "values": [{"binder": "B18", "binding result": "binds"}, {"binder": "B19", "binding result": "binds"}, {"binder": "B20", "binding result": "binds"}, {"binder": "B21", "binding result": "binds"}, {"binder": "B22", "binding result": "binds"}, {"binder": "B23", "binding result": "binds"}, {"binder": "B24", "binding result": "binds"}, {"binder": "B25", "binding result": "binds"}, {"binder": "B26", "binding result": "binds"}, {"binder": "B27", "binding result": "binds"}, {"binder": "B28", "binding result": "binds"}, {"binder": "B29", "binding result": "binds"}, {"binder": "B30", "binding result": "binds"}, {"binder": "B31", "binding result": "binds"}, {"binder": "B32", "binding result": "binds"}, {"binder": "B33", "binding result": "binds"}, {"binder": "B34", "binding result": "binds"}, {"binder": "B35", "binding result": "binds"}, {"binder": "B36", "binding result": "binds"}, {"binder": "B37", "binding result": "binds"}, {"binder": "B38", "binding result": "binds"}, {"binder": "B39", "binding result": "binds"}, {"binder": "B40", "binding result": "binds"}, {"binder": "B41", "binding result": "binds"}, {"binder": "B42", "binding result": "binds"}, {"binder": "B43", "binding result": "binds"}, {"binder": "B44", "binding result": "binds"}]}]}
